Experimental data taken from US20140271457A1 (AbbVie / Abbott, published 2014).

B1: DVD3106 (bispecific antibody, IgG1)
VH: EVQLVQSGAEVKKPGASVKVSCKASGYTFANYGIIWVRQAPGQGLEWMGWINTYTGKPTYAQKFQGRVTMTTDTSTSTAYMELSSLRSEDTAVYYCARKLFTTMDVTDNAMDYWGQGTTVTVSSASTKGPEVQLVQSGAEVKKPGASVKVSCKASGYTFTTYGVSWVRQAPGQGLEWMGEIYPGNYNTYYNEKFRGRVTMTTDTSTSTAYMELRSLRSDDTAVYYCARWRTSYFSDYGYFDYWGQGTTVTVSS
VL: DIQMTQSPSSLSASVGDRVTITCRASQDISQYLNWYQQKPGKAPKLLIYYTSRLQSGVPSRFSGSGSGTDFTLTISSLQPEDFATYFCQQGNTWPPTFGQGTKLEIKRTVAAPSVFIFPPDVVMTQSPLSLPVTLGQPASISCRSSQSLVHSHGNTYLHWYQQRPGQSPRLLIYTVSNRFSGVPDRFSGSGSGTDFTLKISRVEAEDVGVYYCSQSTHVPYTFGGGTKVEIKR
notes: DVD-Ig; wt hIgG1 + kappa constants
B2: DVD3164 (bispecific antibody, IgG1)
VH: EVQLVQSGAEVKKPGASVKVSCKASGYTFANYGIIWVRQAPGQGLEWMGWINTYTGKPTYAQKFQGRVTMTTDTSTSTAYMELSSLRSEDTAVYYCARKLFTTMDVTDNAMDYWGQGTTVTVSSASTKGPEVQLVQSGAEVKKPGASVKVSCKASGYTFTSYWMHWVRQAPGQGLEWIGNINPKGGSNIYNEKFQGRVTMTRDTSISTAYMELSRLRSDDTAVYYCARLDYFGDSFDLWGQGTTVTVSS
VL: DIQMTQSPSSLSASVGDRVTITCRASQDISQYLNWYQQKPGKAPKLLIYYTSRLQSGVPSRFSGSGSGTDFTLTISSLQPEDFATYFCQQGNTWPPTFGQGTKLEIKRTVAAPDIQMTQSPSSLSASVGDRVTITCRASQGIRNYLNWYQQKPGKAPKLLIYYASNLEVGVPSRFSGSGSGTDYTLTISSLQPEDFATYYCQQDNRFPYTFGGGTKVEIKR
notes: as for B1
B3: DVD3166 (bispecific antibody, IgG1)
VH: EVQLVQSGAEVKKPGASVKVSCKASGYTFANYGIIWVRQAPGQGLEWMGWINTYTGKPTYAQKFQGRVTMTTDTSTSTAYMELSSLRSEDTAVYYCARKLFTTMDVTDNAMDYWGQGTTVTVSSASTKGPEVQLVQSGAEVKKPGASVKVSCKASGYTFTSYWMHWVRQAPGQGLEWIGNINPKGGSNIYNEKFQGRVTMTRDTSISTAYMELSRLRSDDTAVYYCARLDYFGDSFDLWGQGTTVTVSS
VL: DIQMTQSPSSLSASVGDRVTITCRASQDISQYLNWYQQKPGKAPKLLIYYTSRLQSGVPSRFSGSGSGTDFTLTISSLQPEDFATYFCQQGNTWPPTFGQGTKLEIKRTVAAPSVFIFPPDIQMTQSPSSLSASVGDRVTITCRASQGIRNYLNWYQQKPGKAPKLLIYYASNLEVGVPSRFSGSGSGTDYTLTISSLQPEDFATYYCQQDNRFPYTFGGGTKVEIKR
notes: as for B1
B4: DVD3107 (bispecific antibody, IgG1)
VH: EVQLVQSGAEVKKPGASVKVSCKASGYTFANYGIIWVRQAPGQGLEWMGWINTYTGKPTYAQKFQGRVTMTTDTSTSTAYMELSSLRSEDTAVYYCARKLFTTMDVTDNAMDYWGQGTTVTVSSASTKGPSVFPLAPEVQLVQSGAEVKKPGASVKVSCKASGYTFTTYGVSWVRQAPGQGLEWMGEIYPGNYNTYYNEKFRGRVTMTTDTSTSTAYMELRSLRSDDTAVYYCARWRTSYFSDYGYFDYWGQGTTVTVSS
VL: DIQMTQSPSSLSASVGDRVTITCRASQDISQYLNWYQQKPGKAPKLLIYYTSRLQSGVPSRFSGSGSGTDFTLTISSLQPEDFATYFCQQGNTWPPTFGQGTKLEIKRTVAAPDVVMTQSPLSLPVTLGQPASISCRSSQSLVHSHGNTYLHWYQQRPGQSPRLLIYTVSNRFSGVPDRFSGSGSGTDFTLKISRVEAEDVGVYYCSQSTHVPYTFGGGTKVEIKR
notes: as for B1
B5: DVD3046 (bispecific antibody, IgG1)
VH: EVQLVESGGGLVQPGGSLRLSCAASGFSLTNNNVNWVRQAPGKGLEWVGGVWAGGATDYNSALKSRFTISRDNSKNTAYLQMNSLRAEDTAVYYCARDGGYSSSTLYAMDAWGQGTLVTVSSASTKGPEVQLVQSGAEVKKPGASVKVSCKASGYTFNNYGIIWVRQAPGQGLEWMGWINTYTGKPTYAQKFQGRVTMTTDTSTSTAYMELSSLRSEDTAVYYCARKLFNTVAVTDNAMDYWGQGTTVTVSS
VL: DIQMTQSPSSLSASVGDRVTITCRASEDIYNALAWYQQKPGKAPKLLIYNTDTLHTGVPSRFSGSGSGTDYTLTISSLQPEDFATYFCQHYFHYPRTFGQGTKVEIKRTVAAPSVFIFPPDIQMTQSPSSLSASVGDRVTITCRASQDIENYLNWYQQKPGKAPKLLIYYTSRLQSGVPSRFSGSGSGTDFTLTISSLQPEDFATYFCQQGNTQPPTFGQGTKLEIKR
B6: DVD3163 (bispecific antibody, IgG1)
VH: EVQLVQSGAEVKKPGASVKVSCKASGYTFANYGIIWVRQAPGQGLEWMGWINTYTGKPTYAQKFQGRVTMTTDTSTSTAYMELSSLRSEDTAVYYCARKLFTTMDVTDNAMDYWGQGTTVTVSSGGGGSGGGGSEVQLVQSGAEVKKPGASVKVSCKASGYTFTSYWMHWVRQAPGQGLEWIGNINPKGGSNIYNEKFQGRVTMTRDTSISTAYMELSRLRSDDTAVYYCARLDYFGDSFDLWGQGTTVTVSS
VL: DIQMTQSPSSLSASVGDRVTITCRASQDISQYLNWYQQKPGKAPKLLIYYTSRLQSGVPSRFSGSGSGTDFTLTISSLQPEDFATYFCQQGNTWPPTFGQGTKLEIKRGGSGGGGSGDIQMTQSPSSLSASVGDRVTITCRASQGIRNYLNWYQQKPGKAPKLLIYYASNLEVGVPSRFSGSGSGTDYTLTISSLQPEDFATYYCQQDNRFPYTFGGGTKVEIKR
notes: as for B1
B7: DVD3041 (bispecific antibody, IgG1)
VH: EVQLVQSGAEVKKPGASVKVSCKASGYTFNNYGIIWVRQAPGQGLEWMGWINTYTGKPTYAQKFQGRVTMTTDTSTSTAYMELSSLRSEDTAVYYCARKLFNTVAVTDNAMDYWGQGTTVTVSSASTKGPEVQLVESGGGLVQPGGSLRLSCAASGFSLTNNNVNWVRQAPGKGLEWVGGVWAGGATDYNSALKSRFTISRDNSKNTAYLQMNSLRAEDTAVYYCARDGGYSSSTLYAMDAWGQGTLVTVSS
VL: DIQMTQSPSSLSASVGDRVTITCRASQDIENYLNWYQQKPGKAPKLLIYYTSRLQSGVPSRFSGSGSGTDFTLTISSLQPEDFATYFCQQGNTQPPTFGQGTKLEIKRTVAAPSVFIFPPDIQMTQSPSSLSASVGDRVTITCRASEDIYNALAWYQQKPGKAPKLLIYNTDTLHTGVPSRFSGSGSGTDYTLTISSLQPEDFATYFCQHYFHYPRTFGQGTKVEIKR
B8: DVD3168 (bispecific antibody, IgG1)
VH: EVQLVQSGAEVKKPGASVKVSCKASGYTFTSYWMHWVRQAPGQGLEWIGNINPKGGSNIYNEKFQGRVTMTRDTSISTAYMELSRLRSDDTAVYYCARLDYFGDSFDLWGQGTTVTVSSGGGGSGGGGSEVQLVQSGAEVKKPGASVKVSCKASGYTFANYGIIWVRQAPGQGLEWMGWINTYTGKPTYAQKFQGRVTMTTDTSTSTAYMELSSLRSEDTAVYYCARKLFTTMDVTDNAMDYWGQGTTVTVSS
VL: DIQMTQSPSSLSASVGDRVTITCRASQGIRNYLNWYQQKPGKAPKLLIYYASNLEVGVPSRFSGSGSGTDYTLTISSLQPEDFATYYCQQDNRFPYTFGGGTKVEIKRGGSGGGGSGDIQMTQSPSSLSASVGDRVTITCRASQDISQYLNWYQQKPGKAPKLLIYYTSRLQSGVPSRFSGSGSGTDFTLTISSLQPEDFATYFCQQGNTWPPTFGQGTKLEIKR
notes: as for B1
B9: DVD3042 (bispecific antibody, IgG1)
VH: EVQLVQSGAEVKKPGASVKVSCKASGYTFNNYGIIWVRQAPGQGLEWMGWINTYTGKPTYAQKFQGRVTMTTDTSTSTAYMELSSLRSEDTAVYYCARKLFNTVAVTDNAMDYWGQGTTVTVSSASTKGPSVFPLAPEVQLVESGGGLVQPGGSLRLSCAASGFSLTNNNVNWVRQAPGKGLEWVGGVWAGGATDYNSALKSRFTISRDNSKNTAYLQMNSLRAEDTAVYYCARDGGYSSSTLYAMDAWGQGTLVTVSS
VL: DIQMTQSPSSLSASVGDRVTITCRASQDIENYLNWYQQKPGKAPKLLIYYTSRLQSGVPSRFSGSGSGTDFTLTISSLQPEDFATYFCQQGNTQPPTFGQGTKLEIKRTVAAPDIQMTQSPSSLSASVGDRVTITCRASEDIYNALAWYQQKPGKAPKLLIYNTDTLHTGVPSRFSGSGSGTDYTLTISSLQPEDFATYFCQHYFHYPRTFGQGTKVEIKR
B10: AB441 (antibody, V domains shown)
VH: EVQLVQSGAEVKKPGASVKVSCKASGYTFANYGIIWVRQAPGQGLEWMGWINTYTGKPTYAQKFQGRVTMTTDTSTSTAYMELSSLRSEDTAVYYCARKLFTTMDVTDNAMDYWGQGTTVTVSS
VL: DIQMTQSPSSLSASVGDRVTITCRASQDISQYLNWYQQKPGKAPKLLIYYTSRLQSGVPSRFSGSGSGTDFTLTISSLQPEDFATYFCQQGNTWPPTFGQGTKLEIKR
notes: parent antibody

Assays:
[1] = target: T1, Recombinant Human TNF-α/TNFSF1A (human, UniProt P01375 77-233); test: Biacore SPR
T1 construct: vendor reagent is named for Biacore; the neutralization assay says only huTNFα; also called huTNFα
T1 sequence (P01375 77-233 limits assumed): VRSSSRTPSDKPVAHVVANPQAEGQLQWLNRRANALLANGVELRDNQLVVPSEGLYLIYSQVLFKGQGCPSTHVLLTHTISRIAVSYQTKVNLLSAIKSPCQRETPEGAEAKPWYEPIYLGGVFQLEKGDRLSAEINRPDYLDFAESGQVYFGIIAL
How it was run: (§1)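 Kinetic constants come from global 1:1 model fitting (Rmax local) at 0.8–100 nM antigen. Flow was 50 μl/min with 5 min association and 10 min dissociation. Capture used goat anti-mouse IgG Fcγ on a CM5 chip in HBS-EP+ at 25 °C.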

Recombinant Human IL-13 = Recombinant Human IL-13 (human, UniProt P35225 35-146, limits assumed); test: Biacore SPR
Sequence of Recombinant Human IL-13 (P35225 35-146 limits assumed): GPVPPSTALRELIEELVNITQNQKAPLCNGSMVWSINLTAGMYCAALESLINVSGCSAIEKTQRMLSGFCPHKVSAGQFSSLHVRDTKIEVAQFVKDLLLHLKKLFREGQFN
How it was run: as §1

[2] = target: T1, Recombinant Human TNF-α/TNFSF1A; test: cell-based or functional assay
Recombinant Human β-NGF = Recombinant Human β-NGF (human, UniProt P01138 122-241); test: cell-based or functional assay
Sequence of Recombinant Human β-NGF (P01138 122-241 limits assumed): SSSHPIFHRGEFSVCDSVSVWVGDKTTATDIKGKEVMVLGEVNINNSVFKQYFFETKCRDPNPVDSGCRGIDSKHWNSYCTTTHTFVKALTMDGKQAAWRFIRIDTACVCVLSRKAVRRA

Binder | Kd [1] | koff [1] | kon [1] | Kd (Recombinant Human IL-13) | koff (Recombinant Human IL-13) | kon (Recombinant Human IL-13) | N-Terminal VD huTNFα Neutralization Assay IC50 [2] | N-Terminal VD NGF Neutralization Assay IC50 (Recombinant Human β-NGF) | C-Terminal VD huTNFα Neutralization Assay IC50 [2] | C-Terminal VD NGF Neutralization Assay IC50 (Recombinant Human β-NGF) | huTNFα Neutralization Assay IC50 [2]
B1 | 0.022 nM | 8.5e-05 s⁻¹ | 3.9e+06 M⁻¹ s⁻¹ | 0.11 nM | 6.4e-05 s⁻¹ | 570000 M⁻¹ s⁻¹ | 0.018 nM | – | – | – | –
B2 | 0.016 nM | 6.5e-05 s⁻¹ | 4e+06 M⁻¹ s⁻¹ | 0.87 nM | 4.8e-05 s⁻¹ | 55000 M⁻¹ s⁻¹ | 0.021 nM | – | – | – | –
B3 | 0.027 nM | 0.00013 s⁻¹ | 4.7e+06 M⁻¹ s⁻¹ | 0.18 nM | 5.1e-05 s⁻¹ | 280000 M⁻¹ s⁻¹ | 0.016 nM | – | – | – | –
B4 | 0.053 nM | 0.00015 s⁻¹ | 2.8e+06 M⁻¹ s⁻¹ | 0.087 nM | 7e-05 s⁻¹ | 810000 M⁻¹ s⁻¹ | 0.015 nM | – | – | – | –
B5 | – | – | – | – | – | – | – | 0.145 nM | 0.05 nM | – | –
B6 | 0.0039 nM | 5e-05 s⁻¹ | 1.3e+07 M⁻¹ s⁻¹ | 0.61 nM | 8.4e-05 s⁻¹ | 140000 M⁻¹ s⁻¹ | 0.015 nM | – | – | – | –
B7 | – | – | – | – | – | – | 0.006 nM | – | – | > 10 nM | –
B8 | 0.045 nM | 3.6e-05 s⁻¹ | 800000 M⁻¹ s⁻¹ | 0.064 nM | 7.4e-05 s⁻¹ | 1.1e+06 M⁻¹ s⁻¹ | – | – | 0.146 nM | – | –
B9 | – | – | – | – | – | – | 0.006 nM | – | – | > 10 nM | –
B10 | 0.0024 nM | 1.8e-05 s⁻¹ | 7.5e+06 M⁻¹ s⁻¹ | – | – | – | – | – | – | – | 0.037 nM
